This note sets out measurements from patent US20080014599A1 (published 2008).

Assay [1] concerns the target T1, TSC2 (human, UniProt P49815 1-1807, limits assumed).
T1 construct: Untagged TSC2 in 293T cell extracts, endogenous or from a transfected TSC2 cDNA; Some extracts of the pull-downs may hold HA-TSC2; also called tuberin; endogenous TSC2
Nature of the assay: in vitro pull-down from extract with 6× His baits (FIG. 13).

Assay [2] addresses T1, TSC2. The assay is described as follows: co-IP with anti-FLAG from 293T extracts (FIG. 34). The procedure: Description: 293T cells were transiently transfected with either empty plasmid or with plasmid containing FLAG-hRTP801 or FLAG-hRTP801-L (REDD2) cDNAs. 48 hrs. post-transfection, cobalt chloride (150 uM) was added (or omitted) for another 24 hrs. Cytosolic extracts prepared and IP was done using anti-FLAG antibodies. Alternatively, 293T cells were transiently transfected with plasmid containing FLAG-hRTP801 cDNA and plasmid containing TSC1 or TSC2 cDNAs or both. 48 hrs. post transfection, cobalt chloride (150 uM) was added for another 24 hrs. Cytosolic extracts prepared and IP was done using anti-TSC1, anti-TSC2 or normal rabbit IgG (NRIgG) antibodies. Alternatively, 293T cells were transiently transfected with either empty plasmid,plasmid containing FLAG-hRTP801 cDNA and plasmids containing either TSC1 and/or TSC2 cDNAs. 48 hrs. post transfection, cobalt chloride (150 uM) was added for another 24 hrs. Cytosolic extracts prepared and IP was done using anti-FLAG antibodies.

The target in a further assay is T2, HA-tagged TSC2 (HA-TSC2) (human, UniProt P49815 1-1807).
T2 construct: Expressed in transfected 293T cells; also called full length HA-tagged TSC2; not shown: HA tag
The assay is described as follows: co-IP with anti-FLAG from transfected 293T post-nuclear supernatant (FIG. 25). The procedure: TSC2 region that binds hRTP801 (FIG. 25). Human TSC2 HA-tagged “N” and “C” fragments (FIG. 25, upper panel) as well as full length HA-tagged TSC2 were transfected into 293T cells along with FLAG-hRTP801 or with empty vector. Forty-eight hours after transfection, the cells were treated with CoCl₂ for overnight. Cells were harvested and post-nuclear supernatant was prepared and used for IP with anti-FLAG antibodies. […] Similar results are achieved with RTP801L

The target of assay [3] is T3, HA-tagged TSC2 “N” fragment (a.a. 2-935) (human, UniProt P49815 2-935).
T3 construct: Printed as a.a; also called HA-“N” fragment of TSC2; not shown: HA tag
Nature of the assay: co-IP with anti-FLAG, anti-HA blot (FIG. 17). The procedure:
Cytosolic extracts were prepared and IP was done using anti-FLAG antibodies. Analysis of the immnocomplexes was done with anti-HA.

Assay [4] has as its target T4, HA-SV5-full length hRTP801 (human, UniProt Q9NX09 1-232).
T4 construct: Full length, expressed in transfected 293T HEK cells; also called HA-SV5-hRTP801; HA-full length hRTP801; not shown: HA and SV5 tags
T4 sequence: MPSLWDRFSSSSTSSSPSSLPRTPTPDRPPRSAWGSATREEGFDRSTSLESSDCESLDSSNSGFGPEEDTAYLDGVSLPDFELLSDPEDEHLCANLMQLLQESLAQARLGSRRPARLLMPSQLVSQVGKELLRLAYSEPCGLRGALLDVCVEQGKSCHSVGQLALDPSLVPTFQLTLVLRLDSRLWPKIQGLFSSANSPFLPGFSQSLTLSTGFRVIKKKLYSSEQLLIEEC
The assay is described as follows: co-IP with M2 anti-FLAG resin from 293T HEK extracts, immunoblot (FIG. 21). The procedure:
293T HEK cells were co-transfected with a plasmid containing cDNA of HA-SV5-full length hRTP801 (“Prey”) as well as plasmid containing cDNA of one of the following: FLAG-full length hRTP801, FLAG-(C) hRTP801, FLAG-(N-C1) hRTP801, FLAG-(N-C1) hRTP801, FLAG-(N-C2)hRTP801 and FLAG-(C3) hRTP801. Forty-eight hours after transfection, cells were treated with 150 uM cobalt chloride for 18 hrs to mimick hypoxic stress conditions. The next day, cytosolic extracts were made by mechanic lysis under hypotonic conditions. FLAG-tagged bait proteins were immunoprecipitated with M2 anti-FLAG resin (Sigma). Following extensive washing, immunoprecipitated material was analyzed by immunblotting with either anti-hRTP801 polyclonal antibodies (proprietary) or with anti-SV5 polyclonal antibodies (AbCam).
In general terms: Immunoblotting shows a protein as a band on a membrane.

T1 sequence (P49815 other isoform, or with tags, fused parts or gaps limits assumed): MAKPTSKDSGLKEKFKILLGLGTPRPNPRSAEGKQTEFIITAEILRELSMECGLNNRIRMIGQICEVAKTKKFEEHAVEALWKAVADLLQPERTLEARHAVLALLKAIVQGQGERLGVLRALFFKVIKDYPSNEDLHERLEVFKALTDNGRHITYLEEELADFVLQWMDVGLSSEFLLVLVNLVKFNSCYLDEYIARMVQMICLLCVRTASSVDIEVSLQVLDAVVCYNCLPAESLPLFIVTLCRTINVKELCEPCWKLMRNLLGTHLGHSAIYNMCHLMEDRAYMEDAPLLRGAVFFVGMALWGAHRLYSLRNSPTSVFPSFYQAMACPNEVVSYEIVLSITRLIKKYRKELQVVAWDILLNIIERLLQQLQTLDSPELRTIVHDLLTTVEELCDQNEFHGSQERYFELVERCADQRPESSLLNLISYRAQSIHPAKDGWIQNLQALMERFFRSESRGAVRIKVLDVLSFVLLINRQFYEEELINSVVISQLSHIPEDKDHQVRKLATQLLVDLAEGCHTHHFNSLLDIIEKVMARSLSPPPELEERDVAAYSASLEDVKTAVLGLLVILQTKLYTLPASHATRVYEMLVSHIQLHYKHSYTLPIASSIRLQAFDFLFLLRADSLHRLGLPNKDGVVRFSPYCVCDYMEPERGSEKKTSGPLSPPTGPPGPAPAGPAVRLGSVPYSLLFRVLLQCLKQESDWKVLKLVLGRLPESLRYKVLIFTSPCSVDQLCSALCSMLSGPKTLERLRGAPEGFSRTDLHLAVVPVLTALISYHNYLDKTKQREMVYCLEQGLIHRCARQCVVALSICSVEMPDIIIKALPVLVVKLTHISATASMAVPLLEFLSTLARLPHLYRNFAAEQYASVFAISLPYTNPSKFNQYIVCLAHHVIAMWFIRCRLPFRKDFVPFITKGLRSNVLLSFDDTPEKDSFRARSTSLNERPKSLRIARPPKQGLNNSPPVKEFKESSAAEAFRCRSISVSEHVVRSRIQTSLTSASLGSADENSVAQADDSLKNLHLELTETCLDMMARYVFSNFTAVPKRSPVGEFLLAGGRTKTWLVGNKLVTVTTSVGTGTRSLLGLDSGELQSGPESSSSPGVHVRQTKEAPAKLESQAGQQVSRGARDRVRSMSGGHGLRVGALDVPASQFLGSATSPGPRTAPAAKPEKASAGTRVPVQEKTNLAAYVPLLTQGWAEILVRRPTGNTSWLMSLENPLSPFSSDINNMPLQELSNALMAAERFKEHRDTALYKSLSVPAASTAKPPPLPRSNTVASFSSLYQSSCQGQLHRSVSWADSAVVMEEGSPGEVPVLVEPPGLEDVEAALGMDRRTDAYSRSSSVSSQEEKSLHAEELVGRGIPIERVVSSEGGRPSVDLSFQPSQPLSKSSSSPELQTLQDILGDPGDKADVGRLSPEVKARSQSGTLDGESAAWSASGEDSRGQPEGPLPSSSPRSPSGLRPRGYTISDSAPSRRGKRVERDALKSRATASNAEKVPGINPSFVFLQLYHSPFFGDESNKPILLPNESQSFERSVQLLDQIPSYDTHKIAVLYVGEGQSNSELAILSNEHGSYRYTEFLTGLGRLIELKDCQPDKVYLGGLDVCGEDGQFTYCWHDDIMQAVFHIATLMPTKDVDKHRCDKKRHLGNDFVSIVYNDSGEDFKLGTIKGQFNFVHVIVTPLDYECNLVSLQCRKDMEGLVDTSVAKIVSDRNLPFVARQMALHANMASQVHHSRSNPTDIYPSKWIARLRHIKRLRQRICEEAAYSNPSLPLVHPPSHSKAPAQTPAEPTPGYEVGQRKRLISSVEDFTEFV
T3 sequence (P49815 other isoform, or with tags, fused parts or gaps): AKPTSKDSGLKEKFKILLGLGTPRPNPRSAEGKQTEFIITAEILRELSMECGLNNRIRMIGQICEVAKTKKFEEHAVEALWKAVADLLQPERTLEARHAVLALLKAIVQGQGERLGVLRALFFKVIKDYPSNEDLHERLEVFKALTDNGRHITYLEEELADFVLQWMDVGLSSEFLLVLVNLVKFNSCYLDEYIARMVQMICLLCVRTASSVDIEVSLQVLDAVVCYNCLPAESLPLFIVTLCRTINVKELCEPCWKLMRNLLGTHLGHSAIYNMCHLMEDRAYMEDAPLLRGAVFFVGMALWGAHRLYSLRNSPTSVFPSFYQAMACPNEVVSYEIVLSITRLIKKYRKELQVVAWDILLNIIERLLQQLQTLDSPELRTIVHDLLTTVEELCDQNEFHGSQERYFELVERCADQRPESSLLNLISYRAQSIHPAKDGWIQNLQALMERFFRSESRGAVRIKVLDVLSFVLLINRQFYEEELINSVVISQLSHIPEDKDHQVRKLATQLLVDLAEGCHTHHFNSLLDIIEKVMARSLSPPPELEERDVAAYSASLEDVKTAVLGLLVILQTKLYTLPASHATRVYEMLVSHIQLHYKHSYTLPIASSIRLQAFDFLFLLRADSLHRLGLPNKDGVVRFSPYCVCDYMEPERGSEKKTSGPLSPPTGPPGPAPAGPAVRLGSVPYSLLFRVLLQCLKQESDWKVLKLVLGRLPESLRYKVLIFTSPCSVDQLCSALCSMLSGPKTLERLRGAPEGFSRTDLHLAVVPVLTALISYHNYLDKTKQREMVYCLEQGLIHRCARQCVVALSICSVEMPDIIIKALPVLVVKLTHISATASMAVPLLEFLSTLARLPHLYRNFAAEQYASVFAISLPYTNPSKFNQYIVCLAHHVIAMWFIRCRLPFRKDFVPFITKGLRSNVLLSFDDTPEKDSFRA
T2 sequence (P49815 other isoform, or with tags, fused parts or gaps limits assumed): as the sequence (P49815 other isoform, or with tags, fused parts or gaps limits assumed) above

B1: 6× His hRTP801 N-fragment (other)
chain: MPSLWDRFSSSSTSSSPSSLPRTPTPDRPPRSAWGSATREEGFDRSTSLESSDCESLDSSNSGFGPEEDTAYLDGVSLPDFELLSDPE
notes: not shown: 6× His tag
For the molecule B1, the binding result with TSC2 [1] was “no binding”.

B2: FLAG-hRTP801-L (REDD2) (other)
chain: MVATGSLSSKNPASISELLDCGYHPESLLSDFDYWDYVVPEPNLNEVIFEESTCQNLVKMLENCLSKSKQTKLGCSKVLVPEKLTQRIAQDVLRLSSTEPCGLRGCVMHVNLEIENVCKKLDRIVCDSSVVPTFELTLVFKQENCSWTSFRDFFFSRGRFSSGFRRTLILSSGFRLVKKKLYSLIGTTVIEGS
notes: Expressed in transfected 293T cells; also called FLAG-RTP801L; not shown: FLAG tag
B2: in the assay with TSC2 [2], the binding result was “binds”.

B3: FLAG-hRTP801 (other)
chain: T4 sequence
notes: Full length hRTP801 with FLAG tag, expressed in transfected 293T cells; also called FLAG-full length hRTP801; FLAG-tagged hRTP801; not shown: FLAG tag
Regarding B3, the binding result (in the assay with HA-tagged TSC2 (HA-TSC2); in assay [3]; with TSC2 [2]) was “binds” throughout.

B4: FLAG-(N-C2)hRTP801 (other)
chain: MPSLWDRFSSSSTSSSPSSLPRTPTPDRPPRSAWGSATREEGFDRSTSLESSDCESLDSSNSGFGPEEDTAYLDGVSLPDFELLSDPEDEHLCANLMQLLQESLAQARLGSRRPARLLMPSQLVSQVGKELLRLAYSEPCGLRGALLDVCVEQGKSCHSVGQLALDPSLVPTFQLTLVLRLDSRLWPKIQGLFSS
notes: also called hRTP801 N-C2 fragment; hRTP801 N-C2 mutant; not shown: FLAG tag
With B4, the binding result in assay [4] is “binds”.
